Test results: patent US20250243243A1, “DISRUPTION OF SONIC HEDGEHOG-SURF4 INTERACTION FOR CANCER TREATMENT” (The Hong Kong University of Science and Technology, priority 2022, published 2025)

What was measured:
[1] = molecular target: IGF2-HA (human) (UniProt P01344); assay: anti-HA immunoprecipitation from HEK293T lysate, label-free quantitative mass spectrometry; 2 unique peptides; untransfected Control Group printed 247624.8556
[2] = molecular target: ShhN^1-198-HA (mouse) (UniProt Q62226); assay: as above
[3] = molecular target: ShhN^1-198-HA (mouse) (UniProt Q62226); assay: anti-HA immunoprecipitation from HEK293T lysate, label-free quantitative mass spectrometry; ratio of the ShhN-HA group to the IGF2-HA group

Chain of ShhN^1-198-HA (mouse) (Q62226 25-198): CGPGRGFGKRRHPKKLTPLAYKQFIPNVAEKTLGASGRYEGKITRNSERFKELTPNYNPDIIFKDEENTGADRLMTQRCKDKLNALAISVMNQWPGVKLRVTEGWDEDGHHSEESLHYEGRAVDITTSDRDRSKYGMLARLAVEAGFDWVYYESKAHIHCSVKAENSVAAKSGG

B1: CLINT1 (protein, human (HEK293T cells), UniProt Q14677 1-625, looked up)
single chain: MLNMWKVRELVDKATNVVMNYSEIESKVREATNDDPWGPSGQLMGEIAKATFMYEQFPELMNMLWSRMLKDNKKNWRRVYKSLLLLAYLIRNGSERVVTSAREHIYDLRSLENYHFVDEHGKDQGINIRQKVKELVEFAQDDDRLREERKKAKKNKDKYVGVSSDSVGGFRYSERYDPEPKSKWDEEWDKNKSAFPFSDKLGELSDKIGSTIDDTISKFRRKDREDSPERCSDSDEEKKARRGRSPKGEFKDEEETVTTKHIHITQATETTTTRHKRTANPSKTIDLGAAAHYTGDKASPDQNASTHTPQSSVKTSVPSSKSSGDLVDLFDGTSQSTGGSADLFGGFADFGSAAASGSFPSQVTATSGNGDFGDWSAFNQAPSGPVASSGEFFGSASQPAVELVSGSQSALGPPPAASNSSDLFDLMGSSQATMTSSQSMNFSMMSTNTVGLGLPMSRSQNTDMVQKSVSKTLPSTWSDPSVNISLDNLLPGMQPSKPQQPSLNTMIQQQNMQQPMNVMTQSFGAVNLSSPSNMLPVRPQTNALIGGPMPMSMPNVMTGTMGMAPLGNTPMMNQSMMGMNMNIGMSAAGMGLTGTMGMGMPNIAMTSGTVQPKQDAFANFANFSK
abundance in The IGF2 Group [1]: 78500 | abundance in The ShhN Group [2]: 275000 | Abundance Ratio ShhN:IGF2 [3]: 3.5
